This assay addresses T1, murine 4-1BBL expressed on the surface of B16-F10 and B16-F10/4-1BBL melanoma cells (mouse, UniProt P41274 1-309).
T1 construct: whole, on cells; also called 4-1BB ligand; mouse 4-1BBL
T1 sequence (looked up): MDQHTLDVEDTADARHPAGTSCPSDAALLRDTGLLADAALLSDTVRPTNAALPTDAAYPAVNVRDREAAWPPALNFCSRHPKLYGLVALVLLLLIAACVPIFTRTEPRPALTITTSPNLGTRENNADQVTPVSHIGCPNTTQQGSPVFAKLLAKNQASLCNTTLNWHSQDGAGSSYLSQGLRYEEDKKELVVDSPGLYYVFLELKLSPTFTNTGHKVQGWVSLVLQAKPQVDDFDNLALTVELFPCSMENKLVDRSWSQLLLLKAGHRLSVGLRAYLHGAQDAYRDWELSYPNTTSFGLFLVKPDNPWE
The assay can be described thus: flow cytometry; cells incubated with the chimera, detected with PE-conjugated IgG Fcγ Ab. The procedure:
FIG. 2. B16-F10-4-1BBL cells express functional 4-1BBL binding to 4-1BB. Cells were incubated with 41BB/TNFRSF9/Fc chimera and stained using a PE-conjugated IgG Fcγ Ab to detect binding to 4-1BBL, measured using the FACSCalibur flow cytometer. The black and the green histograms represent the unstained control samples of B16-F10 and B16-F10-4/1BBL sorted cells respectively. The red and the purple histograms show the B16-F10 and B16-F10/4-1BBL cells respectively stained only with the IgG Fcγ PE secondary Ab. The blue histogram represents the B16-F10 cells incubated with the 4-1BB/TNFRSF9/Fc Chimera and stained with the IgG Fcγ PE secondary Ab. The maroon histogram depicts populations of cells further subjected to sorting for 4-1BBL, re-expanded in culture before immunostaining with the 41BB/TNFRSF9/Fc chimera and the IgG Fcγ PE secondary Ab
To further test that the 4-1BBL expressed on the B16-F10/4-1BBL cells was intact and functional, an additional assay was performed for the binding of 4-1BBL on the cells to its receptor, 4-1BB. […]
Transfection efficiency was determined by staining B16-F10 sublines with antibodies to detect the cell surface markers, B7.1 and 4-1BBL. […] The presence of both of these cell surface molecules were detected using either flow cytometer. […]

B1: recombinant mouse 4-1BB/Fc chimera (Fc fusion, UniProt P20334 24-187, looked up)
chain: VQNSCDNCQPGTFCRKYNPVCKSCPPSTFSSIGGQPNCNICRVCAGYFRFKKFCSSTHNAECECIEGFHCLGPQCTRCEKDCRPGQELTKQGCKTCSLGTFNDQNGTGVCRPWTNCSLDGRSVLKTGTTEKDVVCGPPVVSFSPSTTISVTPEGGPGGHSLQVL
notes: Bought reagent; It calls it a 'primary antibody', but it is the receptor 4-1BB fused to Fc; also called 4-1BB/TNFRSF9/Fc Chimera; 41BB/TNFRSF9/Fc chimera; not shown: Fc part of the chimera
B1: the binding result is recorded as “binds”.

The record behind these values is patent US20180360879A1 (CANCURE, published 2018).
